According to publication PMC7809043:

Target: mouse Atg7 (mAtg7) (mouse) (UniProt Q9D906)
Sequence (Q9D906 whole entry): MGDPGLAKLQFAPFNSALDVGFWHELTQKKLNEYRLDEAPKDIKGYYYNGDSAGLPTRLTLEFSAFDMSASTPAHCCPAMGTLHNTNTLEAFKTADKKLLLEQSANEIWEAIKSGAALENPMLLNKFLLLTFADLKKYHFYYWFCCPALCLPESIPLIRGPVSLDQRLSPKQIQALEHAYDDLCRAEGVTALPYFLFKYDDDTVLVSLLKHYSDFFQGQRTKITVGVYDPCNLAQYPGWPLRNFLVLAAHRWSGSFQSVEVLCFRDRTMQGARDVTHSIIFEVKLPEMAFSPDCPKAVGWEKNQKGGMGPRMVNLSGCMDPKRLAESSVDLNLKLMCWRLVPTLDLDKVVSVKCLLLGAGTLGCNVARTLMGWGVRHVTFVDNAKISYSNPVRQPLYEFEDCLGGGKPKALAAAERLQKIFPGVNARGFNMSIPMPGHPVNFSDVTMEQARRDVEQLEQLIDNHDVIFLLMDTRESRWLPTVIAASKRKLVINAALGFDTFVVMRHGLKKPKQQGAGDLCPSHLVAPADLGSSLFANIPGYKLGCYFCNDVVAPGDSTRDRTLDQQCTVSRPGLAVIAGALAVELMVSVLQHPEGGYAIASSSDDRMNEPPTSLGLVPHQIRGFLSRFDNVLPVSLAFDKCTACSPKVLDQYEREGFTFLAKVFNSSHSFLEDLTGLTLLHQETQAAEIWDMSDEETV

| LC3B-hAtg3 thioester intermediate formed, within 30 min | LC3B-hAtg3^∆90-190 thioester intermediate formed, after 1 h | LC3B–PE conjugase activity compared to the wild type (in vitro conjugation assay) | Substance |
| --- | --- | --- | --- |
| 70% | – | – | human Atg3 (hAtg3), wild type (from UniProt Q9NT62 1-314) (enzyme) |
| – | 25% | 50% | hAtg3^∆90-190 (from UniProt Q9NT62 1-314) (enzyme) |
